This note sets out measurements from the DeepSol protein solubility set.

This data set can be described thus: soluble on expression in E. coli; label from the status in PepcDB or PDB records.
As to “MPPFYKRLHRKKDGRELFLYGLMPLEGPPLPEDAEPFRPAPHLRYHPLRGEWVVYAAHRQGRTFLPPKEHCPLCPSREGGFPTEIPFPSFQVAVFENRFPSFVEEAPPPPEGLPVPAGRALGRCEVVVYTPAHTGSLATLTEEERLLLAWAWRDRYEALYALPGVRFVMPFENRGEAVGVTLHHPHGQIYAYPFVPPVLERESQAFRERPVLLRLFPSLGPYVVDEEEGFLAFVPPFARYPFEVWVAPVERHPGPWTFSEGEMAAFARLLGRVVARYDALFGEPFPYVMVFHAAPLGEEATFHFHVEFYPPRRTRDKLKFLAGTELGAGTFVVDALPEETAKALRAALP”, the “soluble on expression in E. coli” value is listed as “soluble”.

“MPPGKKGQASSLGQNKVHFHKYNLILLPPDTISSHSSEERGLLWKHRLSQARTSYSSHVRILVRIRKMWEKTPHMRIGNIFFKKREL”: the “soluble on expression in E. coli” value is reported as “not soluble”.

Consider “MPPQPQIMVDLQMEQVMPNPDLKNIARLISQDPGLSGALLKLVNSPFFGLANRITSIQRAVNLLGSRSVINLINAQSIKGEMSDDTIVTLNRFWDTAQDVAMSCLSLAKRIGYESVDEAYALGLFHNCGIPLMLKRFPHYMAVLEEAYAAASDERRVVDTENRVLNTNHAVVGYYTARSWRLPEHVCEAIANHHNALSIFGDESARDTQLKNLLAILKMAEHICGSHRVLGNQPEDHEWNSIGALVLDYVGLTDYDFENLKGSILELGVGQGSY”, for which the “soluble on expression in E. coli” value is on record as “not soluble”.

Turning to “MPPRRYNPDTRRDELLERINLDIPGAVAQALREDLGGTVDANNDITAKLLPENSRSHATVITRENGVFCGKRWVEEVFIQLAGDDVTIIWHVDDGDVINANQSLFELEGPSRVLLTGERTALNFVQTLSGVASKVRHYVELLEGTNTQLLDTRKTLPGLRSALKYAVLCGGGANHRLGLSDAFLIKENHIIASGSVRQAVEKASWLHPDAPVEVEVENLEELDEALKAGADIIMLDNFETEQMREAVKRTNGKALLEVSGNVTDKTLREFAETGVDFISVGALTKHVQALDLSMRFR”, the “soluble on expression in E. coli” value is “soluble”.

As to “MPQINTVPGPHLRRQVWLRTKSGQRLAYAVSWWDASHVDEYLQNRSLPIWDSLSRLHTELYRDIQAIYCGHNRTLAKAFGQEGPFWGRHYLFWHDRKPLTLIYEIFSPYLSRYLGELPRPKFELEHHHHHH”, the “soluble on expression in E. coli” value is recorded as “not soluble”.

“MPRDPLIGIVGKPSSGKSTTLNSLTDAGAAVGAFPFTTIEPNQATGYLQVECACSRFGKEDLCKPNYGWCSKGKRHIPIKLLDVAGLVPGAHSGRGLGNKFLDDLRHADALIHVVDVSGTTDAEGKNTRGYDPLNDIEWLQDEIRLWVEGNLKKRWGSIVRKHTATKSSIVDTLQAQFGGYGSHAPMIQKALDRLKGLPPLEKWDDEWITRVVKSFMMEKFPTVLALNKIDHPDADKNVSKIMLKYPDTKAVLTSAVTEVFLRKLKKQGFILYEEGTEFVDTFEDEPDKLKPLDDKILNRIENIRDLVLYRFGSTGVVQVLQAATDILGLIPVYTVKNIQTFTGGNGTNVFRDCFLVKRGTPVGKVARYIMGGEVTIASIETVGGVRVSEESLVEPGKNDILGFKIAPRSA”: the “soluble on expression in E. coli” value was “soluble”.

As to “MPRIEDRLINRTPRNFTIIGNSPNSMSRGKRPHTTPIEVHLLREGIIESQHWAEATVYDDRGRVLMLAGDSTSNAFIRSSLKPFQALAVTSTGTMERYGLTDKDLAIMCGSHQGTIEQARQVFNILWRADIEPQALQCPIPAGQESPLYHGCSGKHAGMLAVCQQQDWPLHSYLQQNSPIQKLILSKVADLLGMPGAELIAAHDDCGAPTYTMELGQIAHLYALLASGQQLGLERVARAMTYYPYFVAGEGCFDTELMQQMEGELVSKSGAEGVQCVGRVGEGLGLAIKVKDGSKRAKYAVAIHLLQQMGWIPPQVAETLSEKFVRLGKYKRLEVIGELAMLLEHHHHHH”, the “soluble on expression in E. coli” value is “not soluble”.

Turning to “MPRKAREYPEEGEFVVATVKRIHNYGAFLELDEYPGKEAFMHISEVASTWVRNIRDYLKEGQKVVAKVIRVDPRKGHIDLSLRRVTQQQRKAKLQEFKRAQKAENLLRLAAEKLGKDFEAAWREVWVPLEEEWGEVYAAFEDAAKDGIEVLKGHVPDEWLPVLKEIVENYVEVPTVTIDAEFEITVPKPNGVEIIKEALIRARDRANKEKDIEVKFTYQGAPRYRIDITAPDYYKAEEVLEDIAEEILRVIKQAGGEATLLRKEKRIRKVKKRKK”, the “soluble on expression in E. coli” value is “soluble”.

“MPRSFLVKKHFNASKKPNYSELDTHTVIISPYLYESYSMPVIPQPEILSSGAYSPITVWTTAAPFHAQLPNGLSPLSGYSSSLGRVSPPPPSDTSSKDHSGSESPISDEEERLQSKLSDPHAIEAEKFQCNLCNKTYSTFSGLAKHKQLHCDAQSRKSFSCKYCDKEYVSLGALKMHIRTHTLPCVCKICGKAFSRPWLLQGHIRTHTGEKPFSCPHCNRAFADRSNLRAHLQTHSDVKKYQCKNCSKTFSRMSLLHKHEESGCCVAH”: the “soluble on expression in E. coli” value is on record as “not soluble”.

As for “MPRTIWSGAISFGLVTVPIHVVSATEDHSVRFHQYHLEDMGRVRVRKYCELEDREVTQDEIGKGYELSKDTVIPVLDEELRELPLPTAKAIEIEAFVPLASIDPMGIGEGYYLQPDGQVAAKPYKLLRQALERSSKVAVAKYAWSGRERLGMLRVREEAIVLHAMRWPDEIRD”, the “soluble on expression in E. coli” value is “not soluble”.

Turning to “MPSSIICDVSHEGEASGGPSPSSRISNGFSHTVCDLHHNFPIVKNRRKYHNSISTQSSSSTTTSLERISTSTCTSTSSSASDAIISRAEKDVQTFLVSDESTTGDHEEEEEDDEDGDDESDHNDYDYEDDGERSEHDHEQTDNDDDEDEIEPFVSSWCFAMGTQRSVMSSVGEKAPKSNVKSMEDWELDVVERAHRESHLAELYADLSWRFYTHPPTSFCLARVFLRHGLTGNEGVSSWKLPRKANRRNSSCSSISSVSESSSPSALDESTLTKILPTDNFRGGRGFASPSPPTSLLSEPLSRMDVLSEKIWDYHNKVSQTDEMLQRKLHLRDMLYTAISPVFPLSGLYVVGSSLNGFGNNSSDMDLCLMITNKDLDQKNDAVVVLNLILSTLQYEKFVESQKLILAKVPILRINFAAPFDDITVDLNANNSVAIRNTHLLCYYSSYDWRVRPLVSVVKEWAKRKGINDANKSSFTSYSLVLMVIHFLQCGPTKVLPNLQQSYPNRFSNKVDVRTLNVTMALEEVADDIDQSLSEKTTLGELLIGFLDYYANEFNYDRDAISIRQGRRVERAALAVRPKIHSNSEGDKETPPPSSSASTSSIHNGGTPGIPMHHSISNPHFWRSQWRCVCIEEPFTNSNTAHSIYDEMVFEAIKKAFREAHGELQHNHDLDKLMECEPIKASTTNTGAAVFAATYEGERPLAQQPNTIACASLRVLNSIPVSSGPGHYHYQQQSNQNLSRPQRPGSNQGYQMNNNRGFNGNNQQQHQNRRSFNNQSSSNPGNGSTGPRSSRSNENVRDSSRQQNSQKGSSGVSVSKENVASTTGVPVDKKQQNSNRKDDGNRTKRSPMVQSPEPAKTKSEKTPMASSNVSQ”, the “soluble on expression in E. coli” value is on record as “not soluble”.

With “MPSSRRVRSRCCAFGITKRFACIRPACQRARMDAQMTNFETRLRENAAKTEALLGHLLSGEARADEITRPQNLLEAMRHGVLNGGKRLRPFLVIESVALLGGDAEAGLHVGAALECLHCYSLVHDDLPAMDDDDLRRGQPTVHRKFDEATAILAGDSLLTLAFDIIASDDNPLAAERKAALVISLARAAGIGGMAGGQALDLAAEKKAPDEDGIITLQAMKTGALLRFACEAGAIIAGSNQAERQRLRLFGEKIGLSFQLADDLLDLTADAATMGKATGKDAARGKGTLVALRGEAWAREKLQE”, the “soluble on expression in E. coli” value is given as “soluble”.

Regarding “MPSSTTVPTRRGLVSGPSSSDAHGDMPAVSVIMNCLNCERDLAEAIGSVFAQTFDDWEIVFWDNGSTDRSAEIAQGFGERVRYFRATETVPLGAARNLAIAKARGEFIAFLDCDDVWLPEKLERQVALFRANPRVGLVCTDTVMFTGAKDLNRLFEHAHPARGHVFRELMTTQWISMSSAVIRRNALDGMDHWFDESLNVCEEADVFYRIAWDWELDHVDAPLTRWRVHGANTTFRKFGQFAEETLRILDKHRAMYPGYDERYADLVALLRRRAAFQRAVALWREGRGAEARATIAPFDASPKFRLFRLATYLPGALFDPLARLYFALPAFLRRLEHHHHHH”, the “soluble on expression in E. coli” value is “not soluble”.

As to “MPTAIDLFAGLGGWSNGARRAGVKVLWAANHWPVAVGWHSANHPDAIHVCQDLHQADWSKVPAHGIMLASPCCQGHSKARGKKSGNAQHDSSRSTAWAVVSAAEYHSPEVVLVENVEEFTDWALYPAWSQAMAALGYMIAPHVVDCADLGVPQHRVRLFLVCTRSKAPLNLQLHQRQHVPASSFIDFDSGKWSPIVKPSRAESTLTRVKNGRQRFGERFIMPYYRSGSGLTGSCIERPIGTITKLDRWALVRGNEMRMLSADEGLAGMSFDADTKRPASHRLTMHMAGTSTNPVG”, the “soluble on expression in E. coli” value is “not soluble”.

For “MPTDDKARPRKTLTIKKTAPAAPSADDEAPRRKRIGARARLVAQMERAKEQQHAPRRKAPRQDAAHQDDAPRRRPRAPREAEIFPVYAPCPQGIEEALAAEMQALGFEDARAGRAGCAFSTDWAGVQRANLYSRLATRILVQVAQADIGHEDDILDLARSVPWERWFGPDETLRVDTSAIKSPVKSLQYCNLRAKDGICDRLREVEGARPDIDTVRPDARVHLFLSGTTATLYLDTSGESLFKRGWRLDKGEAPLRENLAAGMLALAGWDPAEPLLDPFCGSGTILIEAAWIALGVPPGISRPFGFERLRNHDARRWQDLKADARTRIQTQLETPLFGYDLDPRAIQYAQANAERAWLTADTIRFEVGDARHLAAPADHGWIVTNPPYGERMETEDDSEMWRDWAACLKRQFAGWQVHVISSDMTLPQRLRLKPLRRVPLHNGALDCRLFGFELVPASYRKPA”, the “soluble on expression in E. coli” value is “not soluble”.

With “MPTDEPSKRKSILPTIPTSLMLKKSNEALSDFERTFNDRVMDIFAENRRIDVEEFKKNAECFLNIIRSNKIDLNWGEGGESRYVTITRLMKILKTSPQSIKDLLPHNTVSNFVKITNYNLTIDITLLEELVRTVIHAEESYIKLLPFSENSTEISSYSLQDFVATHFIPIMIEEPENPVYYTAYAVGTIFFLLGARRRDCVYLKDLLASTLLLQLEECIHAENHCLSPPKIDVFTVAQFRTTLSEFRFLDSQRKGLLAPADLKFFRDGIFNEVFTKRIFEISITYEDGRIDFKAFVDFVTALKFRHTTASAKYHFEILDLKDDGLLDEEEIRSISSFQLQNLPDYVPEDNSVNPEVATAELRDMMRLNQNGITLEEFLANRMNSTFAGFLSNSDDYMKYERREQ”, the “soluble on expression in E. coli” value is on record as “not soluble”.

For “MPTGKSESSDISEVVGNMEISKVEGLEACIGMSHEVSTTPAAELAAFRARKVALITGISGQDGSYLAELLLSKGYKVHGIIRRSSSFNTARIEHLYSNPITHHGDSSFSLHYGDMTDSSCLIKLISTIEPTEVYHLAAQSHVKVSFDLPEYTAEVDAVGTLRLLDAIHACRLTEKVRFYQASTSELYGKVQEIPQSEKTPFYPRSPYAVAKMYGYWIVVNYREAYNMFACNGILFNHESPRRGETFVTRKITRSVAKISLGQQESIELGNLSALRDWGHAREYVEAMWRILQHDSPDDFVIATGKQFSVREFCNLAFAEIGEVLQWEGEGVEEVGKNKDGVIRVKVSPKYYRPTEVETLLGNAEKAKKTLGWEAKVTVPELVKEMVASDIILMKSNPMA”, the “soluble on expression in E. coli” value was “not soluble”.

As for “MPTLLIRLQGPLQSWGTRSRFDHRDTWPYPTKSGVVGLLAAALGRDRREDVSDLAALRMGVRVDRKGVLKVDYQTAQFVYRTEGYVAVSTPKEREWLSRYTKTPIRVDERNATVTSKRYFLSDAAFLVGLEGERALLEALHRALKNPRFPLYLGRKSYVPSPPPYLPDGLVEAPLAEALEGYPYLLGGKPPEDLLLALEAEEGRLVYDQPAGPFSERRFAARFVREEVLPKERVPEGPPAWEVARVAH”, the “soluble on expression in E. coli” value was “soluble”.
